This note sets out measurements from patent publication US20110008340A1 (published 2011).

The target of experiment [1] is Properdin peptide (71-110) …. The experiment can be described thus: ELISA saturation binding. (In an ELISA, binding on a coated surface is turned into a signal by an enzyme label.)
In experiment [2] the target is T1, human C3b (human, UniProt P01024 23-667; P01024 749-1663). Kind of experiment: inhibition of properdin binding to C3b (ELISA).
The target in experiment [3] is T1, human C3b. Kind of experiment: inhibition of properdin binding to C3b (ELISA). This is another data set of the same source.

Where two headings read alike, the source gives them in different places.

Properdin peptide (71-110) …, sequence (peptide, as listed by the source): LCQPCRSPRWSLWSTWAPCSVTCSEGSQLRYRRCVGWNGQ

B1: MoAb^71-110 (antibody, V domains shown)
VH: QVLLQQSAPELARPGASVKMSCTASGYIFTNYPIHWVKQRPGQGLEWIGFIDPGGGYDEPDERFRDRATLTADKSSSTAYMQLSSLTSEDSAIYYCARRGGGYYLDYWGQDTTLTVSA
VL: SIVMTQTPKFLLVSAGDRITITCKASQSVNNDVAWYQQKPGQSPKLLIYYASNRYTGVPDRFTGSGYGTDFTFTITTVKAEDLAVYFCQQDYSSPLTFGAGTKLELK
The Kd is the equilibrium constant for the complex coming apart. High values mean lower affinity, low ones higher affinity. The molecule B1 yielded an equilibrium dissociation constant (Kd) in experiment [1] of 161 nM.

B2: Properdin peptide CRSPRWSLWS (75-84) (peptide)
peptide: CRSPRWSLWS
The term IC50 denotes the concentration needed to halve the response being measured. With B2, the IC50 with human C3b [2] turned out to be 322 µg/mL.

B3: Properdin peptide RYRRCVGWNG (99-108) (peptide)
peptide: RYRRCVGWNG
The molecule B3 came in with a concentration for half-maximal inhibition (IC50) with human C3b [3] of 301 µg/mL.
